Measurements: patent publication US10428327B2, “Compositions and methods for enhancing homologous recombination” (LIFE TECHNOLOGIES CORPORATION, priority 2016, dated 2019)
Oligonucleotides are written 5' to 3', each unit as a sugar letter and its base; * is a phosphorothioate linkage, no mark a phosphodiester; rarer units and linkages stand in square brackets, end groups in braces. Plain capitals give the bases only. d = 2'-deoxy (DNA)

T1: DNA ligase IV (Homo sapiens, UniProt P49917)
T1 sequence (P49917 1-911): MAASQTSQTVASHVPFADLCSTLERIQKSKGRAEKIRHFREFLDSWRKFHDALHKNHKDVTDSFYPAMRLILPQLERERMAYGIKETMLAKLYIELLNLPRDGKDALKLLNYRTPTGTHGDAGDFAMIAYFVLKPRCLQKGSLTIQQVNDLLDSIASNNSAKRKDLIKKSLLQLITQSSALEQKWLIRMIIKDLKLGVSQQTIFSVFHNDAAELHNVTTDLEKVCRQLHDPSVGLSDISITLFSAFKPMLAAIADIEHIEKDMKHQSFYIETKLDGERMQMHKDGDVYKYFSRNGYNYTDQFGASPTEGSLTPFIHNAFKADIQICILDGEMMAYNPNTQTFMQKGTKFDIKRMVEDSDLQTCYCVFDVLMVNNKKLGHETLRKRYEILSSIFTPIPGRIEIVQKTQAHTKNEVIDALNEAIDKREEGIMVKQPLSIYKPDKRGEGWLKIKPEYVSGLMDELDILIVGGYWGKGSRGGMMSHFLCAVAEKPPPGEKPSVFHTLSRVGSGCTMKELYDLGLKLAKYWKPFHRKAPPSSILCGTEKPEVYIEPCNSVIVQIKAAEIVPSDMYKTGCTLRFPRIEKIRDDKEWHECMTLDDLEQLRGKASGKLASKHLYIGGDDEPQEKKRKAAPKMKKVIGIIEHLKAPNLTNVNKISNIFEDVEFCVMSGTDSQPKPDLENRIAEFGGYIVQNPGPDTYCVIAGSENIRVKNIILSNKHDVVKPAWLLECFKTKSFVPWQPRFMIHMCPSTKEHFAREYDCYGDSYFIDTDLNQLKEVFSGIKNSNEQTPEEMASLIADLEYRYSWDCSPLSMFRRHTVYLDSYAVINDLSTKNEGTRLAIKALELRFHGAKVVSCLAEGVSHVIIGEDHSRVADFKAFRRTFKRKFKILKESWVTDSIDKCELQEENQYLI


Legend:
rabbit embryos = conditions: in vitro and in vivo; cited from earlier work
DNA ligase IV = molecular target: T1, DNA ligase IV; conditions: cited from earlier work
hESCs = conditions: synchronization at M phase prior to nucleofection; cited from earlier work
HEK293T cells = conditions: synchronization at M phase prior to nucleofection; cited from earlier work
[1] = system: eBFP locus in HEK293 cells expressing eBFP; assay: Genomic cleavage and detection assay at eBFP locus after Cas9 RNP and FLAG/EcoRI donor; format: cell-based; conditions: sequential delivery, 48 hours post transfection
Excerpt: (§1) FIG. 11. Insertion of a FLAG tag along with an EcoRI site using dsDNA donor with single-stranded overhangs. (A) Various donor DNA molecules containing a 30-base FLAG tag along with an EcoRI site were designed and synthesized, including single-stranded DNA donor (ssDNA), blunt-end dsDNA donor (blunt), dsDNA donor with 5′ overhang (5′), dsDNA donor with 3′ overhang (3′). The length of overhangs varied from 6 nucleotides (6), 15 nucleotides (15) to 30 nucleotides (30). The 3′ and 5′ ends of the oligonucleotides harbored two consecutive phosphorothioate-modified bases (Table 4). The short dsDNA donors with and without overhangs were prepared by annealing two short DNA oligonucleotides. […] At 48 hours post transfection, the eBFP locus was PCR-amplified. The resulting PCR fragments were analyzed by the genomic cleavage and detection assays to determine the percentage of Indel or subjected to restriction digestion with EcoRI to determine the percentage of digestion. (B) Length of 3′ overhang. […] Alternatively, a dsDNA donor with 30-base 3′ overhang but without phosphorothioate modification (30-3′n) was used. The percentage of digestion with EcoRI was determined at 48 hours post transfection. (C) Dose effect. […] The eBFP loci were PCR-amplified. The resulting PCR fragments were analyzed by EcoRI digest. (D) Sequencing verification. The PCR fragments were cloned into E. coli and 192 clones were randomly picked for sequencing. The relative percentage of wild type (wt), NHEJ, and HDR clones derived from either ssDNA donor (ssDNA) or dsDNA with 3′ overhangs (3′ overhang) was plotted. The white rectangles represented the population of clones that contained the insert but with a point mutation. Examples of edited clones were shown in (E) (not representing the actual percentages of NHEJ and HDR). The underlined sequences represented the FLAG tag along with an RI site. FIG. 11 discloses SEQ ID NOs: 15-24, respectively, from top to bottom.
The genomic cleavage efficiency was measured by GENEART® Genomic Cleavage Detection kit according to manufacturer's instructions. The primer sequences for PCR amplification of each genomic locus are described in Table 4. Cells were analyzed at 48 to 72 hours post transfection. The cleavage efficiencies were calculated based on the relative agarose gel band intensity, which were quantified using an […]® gel documentation system running […]®, Version 3.4.0.0. ProteinSimple (San Jose, Calif., USA).
To extend this concept, we hypothesized that a dsDNA donor harboring single-stranded overhangs would facilitate HDR to higher levels than with blunt ends. To test this hypothesis, we designed and generated a series of donor molecules with either blunt end, 5′ end protrusion or 3′ end protrusion by annealing two small single-stranded oligonucleotides. A single-stranded DNA donor was used as a control. The 5′ and 3′ ends of oligonucleotides were protected with two consecutive phosphorothioate-modified bases (Table 3). For proof of concept, we inserted a 30 nucleotide FLAG epitope tag along with an EcoRI site into the BFP gene stably expressed in HEK293 cells. The gRNA was designed to target the top DNA strand. The length of single-stranded overhangs varied from 6 nucleotides to 30 nucleotides. The oligonucleotides were denatured and re-annealed prior to transfection forming the structures described in FIG. 11A. […] Co-delivery of Cas9 RNPs and donor DNA gave lower HDR efficiencies. At 48 hours post transfection, the genomic locus was PCR-amplified and the editing efficiencies were determined using a GCD assay. […] When the PCR fragments were subjected to restriction digestion with EcoRI to identify properly inserted constructs, only the donor DNA molecules containing 30-base single-stranded overhangs at the 3′ ends produced the expected digested fragments (30-3′ in FIG. 11, panel A). […]

[2] = system: eBFP locus in HEK293 cells expressing eBFP; assay: EcoRI restriction digestion of PCR-amplified eBFP locus (FLAG tag/EcoRI insertion); format: cell-based; conditions: 48 hours
Excerpt: as §1
To create homologous recombination (HR) assays, a series of gRNAs flanking the insertion site within the EmGFP gene were designed and synthesized (Table 4). Each individual gRNA was combined with GENEART™ […]™ Cas9 Nuclease to form the Cas9 protein/gRNA ribonucleoprotein complexes (Cas9 RNPs). The Cas9 RNPs were then used to transfect cells via NEON® electroporation. The genomic cleavage efficiency was then evaluated using the GENEART® Genomic Cleavage Detection kit at 48 hours post transfection. The gRNAs with highest editing efficiencies and also in close proximity to the insertion site were selected for the subsequent HR assays. For donor design of a single-stranded oligonucleotide, typically the mutation site was positioned at the center flanked by 30 to 50 nucleotides on each side. For asymmetric donor design, 30 nucleotides were placed on either the left or right arm and then 50 or 67 nucleotides on the right or left arm respectively, in both PAM and non-PAM strands. For design of a dsDNA oligonucleotide with single-stranded overhangs, the insertion element was overlapped in the center flanked by various lengths of ssDNA oligonucleotide on each side. By annealing two single-stranded oligonucleotides at 95° C. for 3 minutes, dsDNA donor molecules with either a 5′ protrusion or a 3′ protrusion were generated. To measure homologous recombination efficiency, the donor DNA was either co-transfected with Cas9 RNPs or delivered sequentially into cells via electroporation. At 48 hours post transfection, the gain of EmGFP function in reporter cell lines was determined by flow cytometric analysis with an Attune® NxT Acoustic Focusing Cytometer (Thermo Fisher Scientific). Alternatively, the genomic loci were PCR-amplified using the corresponding primers and then subjected to GENEART® Genomic Cleavage Detection assay or restriction digestion. The resulting PCR products were also subjected to TOPO cloning. Typically, 96 colonies were randomly picked for sequencing. […]

[3] = FIG. 11A, donor configurations, sequential delivery

Molecule	Avg (% Indels) [1] [%]	Avg (% digestion) [2, 3] [%]	also measured
O=C(Nc1ccc(Br)cc1)c1ccc(Br)c(S(=O)(=O)NCc2ccccc2)c1 [RS-1]	–	–	increased knock-in efficiency (rabbit embryos): 2-5 fold
Scr7	–	–	increase in HDR efficiency (DNA ligase IV): up to 19 fold
COC(=O)Nc1nc2ccc(C(=O)c3cccs3)cc2[nH]1 [nocodazole]	–	–	HDR (hESCs): ≤ 1.6%; HDR (HEK293T cells): up to 38%
30-5′: dsDNA donor with 30 nucleotide 5′ overhangs, annealed SEQ ID 85 and 86 (nucleic acid, Two annealed DNA oligonucleotides with 5' overhangs, further chemistry not fully specified) chain 1: dG*dT*dGdCdCdCdTdGdGdCdCdCdAdCdCdCdTdCdGdTdGdAdCdCdAdCdCdCdTdGdAdCdCdGdAdCdTdAdCdAdAdAdGdAdCdGdAdTdGdAdCdGdAdCdAdAdGdAdAdTdTdC*dT*dT chain 2: dG*dT*dGdGdTdCdGdGdGdGdTdAdGdCdGdGdCdTdGdAdAdGdCdAdCdTdGdCdAdCdGdCdCdGdTdAdAdGdAdAdTdTdCdTdTdGdTdCdGdTdCdAdTdCdGdTdCdTdTdTdGdTdAdG*dT*dC	80.00	1.00	–
blunt: blunt-end dsDNA donor, FLAG tag plus EcoRI site, annealed SEQ ID 75 and 76 (nucleic acid, annealed double-stranded DNA donor, further chemistry not fully specified) chain 1: dG*dA*dCdTdAdCdAdAdAdGdAdCdGdAdTdGdAdCdGdAdCdAdAdGdAdAdTdTdC*dT*dT chain 2: dA*dA*dGdAdAdTdTdCdTdTdGdTdCdGdTdCdAdTdCdGdTdCdTdTdTdGdTdAdG*dT*dC	68.50	0.00	–
15-5′: dsDNA donor with 15 nucleotide 5′ overhangs, annealed SEQ ID 81 and 82 (nucleic acid, Two annealed DNA oligonucleotides with 5' overhangs, further chemistry not fully specified) chain 1: dG*dT*dGdAdCdCdAdCdCdCdTdGdAdCdCdGdAdCdTdAdCdAdAdAdGdAdCdGdAdTdGdAdCdGdAdCdAdAdGdAdAdTdTdC*dT*dT chain 2: dG*dC*dAdCdTdGdCdAdCdGdCdCdGdTdAdAdGdAdAdTdTdCdTdTdGdTdCdGdTdCdAdTdCdGdTdCdTdTdTdGdTdAdG*dT*dC	69.50	0.00	–
15-3′: dsDNA donor with 15 nucleotide 3′ overhangs, annealed SEQ ID 83 and 84 (nucleic acid, further chemistry not fully specified) chain 1: dG*dA*dCdTdAdCdAdAdAdGdAdCdGdAdTdGdAdCdGdAdCdAdAdGdAdAdTdTdCdTdTdAdCdGdGdCdGdTdGdCdAdGdT*dG*dC chain 2: dA*dA*dGdAdAdTdTdCdTdTdGdTdCdGdTdCdAdTdCdGdTdCdTdTdTdGdTdAdGdTdCdGdGdTdCdAdGdGdGdTdGdGdTdC*dA*dC	81.00	0.50	Avg (% digestion) ([2]; FIG. 11B, length of 3′ overhang): 0.8%
6-3′: dsDNA donor with 6 nucleotide 3′ overhangs, annealed SEQ ID 79 and 80 (nucleic acid, chemistry not fully specified) chain 1: GACTACAAAGACGATGACGACAAGAATTCTTACGGCG chain 2: AAGAATTCTTGTCGTCATCGTCTTTGTAGTCGGTCAG	78.50	0.00	–
6-5′: dsDNA donor with 6 nucleotide 5′ overhangs, annealed SEQ ID 77 and 78 (nucleic acid, Two annealed DNA oligonucleotides with 5' overhangs, further chemistry not fully specified) chain 1: dC*dT*dGdAdCdCdGdAdCdTdAdCdAdAdAdGdAdCdGdAdTdGdAdCdGdAdCdAdAdGdAdAdTdTdC*dT*dT chain 2: dC*dG*dCdCdGdTdAdAdGdAdAdTdTdCdTdTdGdTdCdGdTdCdAdTdCdGdTdCdTdTdTdGdTdAdG*dT*dC	56.50	0.00	–
